Results as given in patent publication US6509033.

Biological target: 'Empty' HLA-DR1 purified from insect cells expressing recombinant DR1 cDNA (human)

Ki: 33 nM
B1: Invariant Chain (Ii) 98-121 (peptide)
peptide: LPKPPKPVSKMRMATPLLMQALPM
modifications: not checked
